Laboratory results published in PMC9063846, “The structure of Phocaeicola vulgatus sialic acid acetylesterase” (Acta Crystallographica. Section D, Structural Biology, 2022).

Substrate: CC(=O)Oc1ccc([N+](=O)[O-])cc1
Assay: purified protein
Format: biochemical, Phocaeicola vulgatus
Conditions: 10 nM enzyme, 100 mM phosphate-citrate buffer pH 7.0, 25 °C, 1% DMSO

B1: PvSAE (Phocaeicola vulgatus ATCC 8482) (protein)
chain: ERKYSTFYEQRATLFEELPVTSKDIIFLGNSITNGCEWAELFQNKNVKNRGISGDICMGVYDRLDPIVKGKPAKIFLLIGINDVSRGTSADKIISEISMIVRKIKQESPKTKLYLQSVLPVNDCYGMFNGHTSRWQVVKQINDLLEPLAVKEGVAYIDLYSHFVEKETGKMNPVYTNDGLHLLGKGYLLWRDIVKPYVDQK
notes: signal peptide removed (predicted cleavage 19/20); E. coli BL21(DE3) Gold
  Km: 80 ± 6 µM
  kcat: 75 ± 1 s⁻¹
  kcat/Km: 930000 ± 70000 M⁻¹ s⁻¹
